The subject of this data set is Pronase. In words: Protection of MNP-encapsulated catalase from proteolysis. Format: in vitro ADME. As to conditions: by 30 mins. On the procedure: Protection and activity of MNP-encapsulated catalase. The capacity of MNP to protect the catalase cargo was measured using a proteolysis assay. Samples were incubated for 60 min at 37° C. with shaking in a 0.2 wt % buffered Pronase, a robust mixture of proteinases which completely digests proteins into individual amino acids. The amount of catalase retained by MNP post proteolysis was determined following MNP separation by centrifugation (20 min, 4° C. at […]) using the radioactivity assay described above. The enzymatic activity of MNP-bound catalase retained over time was measured in comparison with free catalase.

B1: free catalase: bovine liver catalase, not encapsulated (protein, UniProt P00432 2-527, looked up)
Catalase: ADNRDPASDQMKHWKEQRAAQKPDVLTTGGGNPVGDKLNSLTVGPRGPLLVQDVVFTDEMAHFDRERIPERVVHAKGAGAFGYFEVTHDITRYSKAKVFEHIGKRTPIAVRFSTVAGESGSADTVRDPRGFAVKFYTEDGNWDLVGNNTPIFFIRDALLFPSFIHSQKRNPQTHLKDPDMVWDFWSLRPESLHQVSFLFSDRGIPDGHRHMNGYGSHTFKLVNANGEAVYCKFHYKTDQGIKNLSVEDAARLAHEDPDYGLRDLFNAIATGNYPSWTLYIQVMTFSEAEIFPFNPFDLTKVWPHGDYPLIPVGKLVLNRNPVNYFAEVEQLAFDPSNMPPGIEPSPDKMLQGRLFAYPDTHRHRLGPNYLQIPVNCPYRARVANYQRDGPMCMMDNQGGAPNYYPNSFSAPEHQPSALEHRTHFSGDVQRFNSANDDNVTQVRTFYLKVLNEEQRKRLCENIAGHLKDAQLFIQKKAVKNFSDVHPEYGSRIQALLDKYNEEKPKNAVHTYVQHGSHLSAREKANL
Turning to B1, the “catalase activity on exposure to proteolytic enzymes” value is “total deactivation”.

Source of the values: patent US9028829B2, “Uniform field magnetization and targeting of therapeutic formulations” (The Children's Hospital of Philadelphia, priority 2004, dated 2015).
